Measured values from patent US7271238.

Target: amylin receptors (rat basal forebrain membranes, containing the nucleus accumbens and surrounding regions) (rat)
Experiment: competition radioligand binding, displacement of 125I-rat amylin from rat basal forebrain membranes

| IC50 | Molecule |
| --- | --- |
| 15 pM | 28Pro-human-Amylin (peptide) |
| 10 pM | KCNTATCATQRLANFLVHSSNNFGPILPPTNVGSNTY (2,7-disulfide; made on methylbenzhydrylamine resin (C-terminal amide not spelled out)) [25,28,29Pro-h-Amylin] |
